Results on one substance are retold here after US6780603.

The test has as its target α2β1 integrin receptor of human mesangial cells (human) (UniProt P05556). Put plainly: cell-based or functional assay.

For “P1H5 anti-α2 integrin monoclonal antibody”, the inhibition of adhesion of human mesangial cells grown in 5 mM glucose to cIV (percent of binding in the presence of W6/32) is 60% and the inhibition of adhesion of human mesangial cells grown in 25 mM glucose to cIV (percent of binding in the presence of W6/32) came to 75%.
